Experimental data from paper doi:10.1101/2022.08.14.503930 (bioRxiv, 2022).

Target: T1, GFP-TBK1 (UniProt Q9UHD2 1-729)
T1 construct: TBK1, insect codon optimized gene from GenScript; source: Sf9, purified (Glutathione Sepharose, TEV cleavage, Superdex 200)
Experiment: microscopy-based bead protein-protein interaction assay; GST-4xUb (10 uM) on Glutathione Sepharose beads with OPTN S177D S473D 500 nM, GFP-TBK1 500 nM and PI3Kc1-mCh 200 nM; 25 mM TRIS-Cl pH 7.5, 150 mM NaCl, 1 mM DTT; 30 min, confocal
Conditions: both partners purified

B1: OPTN S2D (S177D, S473D) (natural protein, UniProt Q96CV9 1-577, looked up)
chain: MSHQPLSCLTEKEDSPSESTGNGPPHLAHPNLDTFTPEELLQQMKELLTENHQLKEAMKLNNQAMKGRFEELSAWTEKQKEERQFFEIQSKEAKERLMALSHENEKLKEELGKLKGKSERSSEDPTDDSRLPRAEAEQEKDQLRTQVVRLQAEKADLLGIVSELQLKLNSSGSSEDDFVEIRMAEGEAEGSVKEIKHSPGPTRTVSTGTALSKYRSRSADGAKNYFEHEELTVSQLLLCLREGNQKVERLEVALKEAKERVSDFEKKTSNRSEIETQTEGSTEKENDEEKGPETVGSEVEALNLQVTSLFKELQEAHTKLSEAELMKKRLQEKCQALERKNSAIPSELNEKQELVYTNKKLELQVESMLSEIKMEQAKTEDEKSKLTVLQMTHNKLLQEHNNALKTIEELTRKESEKVDRAVLKELSEKLELAEKALASKQLQMDEMKQTIAKQEEDLETMTILRAQMEVYCDDFHAERAAREKIHEEKEQLALQLAVLLKENDAFEDGGRQSLMEMQSRHGARTSDSDQQAYLVQRGAEDRDWRQQRNIPIHSCPKCGEVLPDIDTLQIHVMDCII
notes: optineurin (OPTN), TBK1 phospho-mimetic form; pGST2-GST-TEV-OPTN(S177D S473D), derived from vectors of Chang et al., 2021; also called OPTN S177D S473D; phosphomimetic OPTN S2D; source: E. coli Rosetta pLySS, purified (Glutathione Sepharose, TEV cleavage, Superdex 200); not shown: GST, N-terminal, cleaved
  binding result: binds
